From patent US7005505 (Genentech, dated 2006)

Columns and labels:
FLT-1 IgG [1] = target: T1, FLT-1 IgG (UniProt P17948 27-758); experiment: competition with 125I-VEGF165 for FLT-1-IgG, radioligand plate assay
T1 construct: Construct only cited from Park et al. 1994; also called FLT-IgG; FLT-1 receptor-IgG chimera; not shown: IgG part of the chimera (captured by anti-human IgG Fc)
Protocol: (§1) After the supernatant was discarded, the wells were washed three times in washing buffer (0.01% Tween 80 in PBS). The plate was blocked (300 µl/well) for one hr in assay buffer (0.5% BSA, 0.03% Tween 80, 0.01% Thimerosal in PBS). The supernatant was discarded and the wells were washed. […] Aliquots of this solution (100 µl) were added to pre-coated microtiter plates and incubated for 4 hr at ambient temperature with gentle agitation. The supernatant was discarded, the plate washed, and individual microtiter wells were counted by gamma scintigraphy (LKB model 1277).

FLT-1 IgG [2] = target: T1, FLT-1 IgG; experiment: competition with 125I-VEGF165 for FLT-1-IgG, radioligand plate assay, no heparin
Protocol: as §1

FLT-1 IgG [3] = target: T1, FLT-1 IgG; experiment: competition with 125I-VEGF165 for FLT-1-IgG, radioligand plate assay; remark: listed apart in the source
Protocol: as §1

KDR-IgG = target: T2, KDR-IgG (UniProt P35968 20-764); experiment: competition with 125I-VEGF165 for KDR-IgG, radioligand plate assay, no heparin
T2 construct: Construct only cited from Park et al. 1994; also called KDR receptor-IgG chimera; soluble KDR; not shown: IgG part of the chimera (captured by anti-human IgG Fc)
T2 sequence (P35968 20-764): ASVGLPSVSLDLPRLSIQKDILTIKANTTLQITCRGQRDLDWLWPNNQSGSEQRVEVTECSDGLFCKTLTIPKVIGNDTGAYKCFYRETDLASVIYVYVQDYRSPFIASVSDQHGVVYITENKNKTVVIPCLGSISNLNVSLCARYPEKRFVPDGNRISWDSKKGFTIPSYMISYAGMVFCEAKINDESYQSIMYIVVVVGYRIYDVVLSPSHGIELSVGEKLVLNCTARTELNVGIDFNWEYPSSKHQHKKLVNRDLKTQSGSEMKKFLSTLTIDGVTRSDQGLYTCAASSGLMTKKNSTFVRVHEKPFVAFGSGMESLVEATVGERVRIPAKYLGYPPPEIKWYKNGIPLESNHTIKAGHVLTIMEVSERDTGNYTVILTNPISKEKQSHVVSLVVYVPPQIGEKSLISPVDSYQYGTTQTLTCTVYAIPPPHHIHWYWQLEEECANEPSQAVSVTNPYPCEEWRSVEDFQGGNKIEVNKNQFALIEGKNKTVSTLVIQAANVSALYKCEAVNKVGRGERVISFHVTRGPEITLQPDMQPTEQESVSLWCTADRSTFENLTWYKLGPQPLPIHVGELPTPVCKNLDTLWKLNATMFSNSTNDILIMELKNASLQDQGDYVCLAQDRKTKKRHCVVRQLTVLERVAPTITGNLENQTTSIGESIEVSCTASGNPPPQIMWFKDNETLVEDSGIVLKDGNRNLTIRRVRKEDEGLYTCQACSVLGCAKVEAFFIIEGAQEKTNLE
Protocol: as §1
In addition to the specific amino acid substitutions, the table indicates the mean residue number for the position of the mutation(s). For a given mutant, this number is the average of the altered positions.

T1 sequence (P17948 27-758): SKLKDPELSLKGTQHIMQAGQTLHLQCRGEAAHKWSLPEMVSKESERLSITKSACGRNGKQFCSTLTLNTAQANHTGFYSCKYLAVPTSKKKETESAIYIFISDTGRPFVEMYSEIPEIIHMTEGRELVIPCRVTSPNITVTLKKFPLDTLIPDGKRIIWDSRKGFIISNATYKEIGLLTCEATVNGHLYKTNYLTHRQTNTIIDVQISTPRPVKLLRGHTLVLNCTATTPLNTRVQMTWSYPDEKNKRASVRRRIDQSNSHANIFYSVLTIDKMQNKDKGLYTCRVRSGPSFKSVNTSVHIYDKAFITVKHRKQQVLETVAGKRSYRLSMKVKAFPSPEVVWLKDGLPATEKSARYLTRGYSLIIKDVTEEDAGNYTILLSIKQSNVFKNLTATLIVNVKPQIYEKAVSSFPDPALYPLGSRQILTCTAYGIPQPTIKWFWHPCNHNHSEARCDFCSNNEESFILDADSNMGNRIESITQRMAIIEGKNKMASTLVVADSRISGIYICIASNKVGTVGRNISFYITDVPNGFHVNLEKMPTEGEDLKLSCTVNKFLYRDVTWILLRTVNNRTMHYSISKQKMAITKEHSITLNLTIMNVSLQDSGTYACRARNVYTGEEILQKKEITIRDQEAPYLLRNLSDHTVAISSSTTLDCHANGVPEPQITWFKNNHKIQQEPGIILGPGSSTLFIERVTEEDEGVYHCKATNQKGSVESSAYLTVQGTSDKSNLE

Row | Binder | IC50 (FLT-1 IgG [1]) [ng/mL] | IC50 (FLT-1 IgG [2]) [nM] | IC50 (FLT-1 IgG [3]) [ng/mL] | IC50 (KDR-IgG) [nM]
1 | D34A VEGF (ligand, VEGF165 mutant from 293 cells, conditioned medium) APMAEGGGQNHHEVVKFMDVYQRSYCHPIETLVAIFQEYPDEIEYIFKPSCVPLMRCGGCCNDEGLECVPTEESNITMQIMRIKPHQGQHIGEMSFLQHNKCECRPKKDRARQENPCGPCSERRKHLFVQDPQTCKCSCKNTDSRCKARQLELNERTCRCDKPRR | 0.59 | 0.011 | – | –
2 | D41A VEGF (ligand, VEGF165 mutant from 293 cells, conditioned medium) APMAEGGGQNHHEVVKFMDVYQRSYCHPIETLVDIFQEYPAEIEYIFKPSCVPLMRCGGCCNDEGLECVPTEESNITMQIMRIKPHQGQHIGEMSFLQHNKCECRPKKDRARQENPCGPCSERRKHLFVQDPQTCKCSCKNTDSRCKARQLELNERTCRCDKPRR | – | 0.022 | – | –
3 | D63A, E64A, E67A VEGF (ligand, VEGF165 mutant from 293 cells, conditioned medium) APMAEGGGQNHHEVVKFMDVYQRSYCHPIETLVDIFQEYPDEIEYIFKPSCVPLMRCGGCCNAAGLACVPTEESNITMQIMRIKPHQGQHIGEMSFLQHNKCECRPKKDRARQENPCGPCSERRKHLFVQDPQTCKCSCKNTDSRCKARQLELNERTCRCDKPRR | – | 0.78 | 44.6 | –
4 | D109A, R110A VEGF (ligand, VEGF165 mutant from 293 cells, conditioned medium) APMAEGGGQNHHEVVKFMDVYQRSYCHPIETLVDIFQEYPDEIEYIFKPSCVPLMRCGGCCNDEGLECVPTEESNITMQIMRIKPHQGQHIGEMSFLQHNKCECRPKKAAARQENPCGPCSERRKHLFVQDPQTCKCSCKNTDSRCKARQLELNERTCRCDKPRR | 1.42 | 0.035 | – | 0.03
5 | E5A VEGF (ligand, VEGF165 mutant from 293 cells, conditioned medium) APMAAGGGQNHHEVVKFMDVYQRSYCHPIETLVDIFQEYPDEIEYIFKPSCVPLMRCGGCCNDEGLECVPTEESNITMQIMRIKPHQGQHIGEMSFLQHNKCECRPKKDRARQENPCGPCSERRKHLFVQDPQTCKCSCKNTDSRCKARQLELNERTCRCDKPRR | – | 0.022 | – | –
6 | E30A VEGF (ligand, VEGF165 mutant from 293 cells, conditioned medium) APMAEGGGQNHHEVVKFMDVYQRSYCHPIATLVDIFQEYPDEIEYIFKPSCVPLMRCGGCCNDEGLECVPTEESNITMQIMRIKPHQGQHIGEMSFLQHNKCECRPKKDRARQENPCGPCSERRKHLFVQDPQTCKCSCKNTDSRCKARQLELNERTCRCDKPRR | – | 0.028 | – | –
7 | E38A VEGF (ligand, VEGF165 mutant from 293 cells, conditioned medium) APMAEGGGQNHHEVVKFMDVYQRSYCHPIETLVDIFQAYPDEIEYIFKPSCVPLMRCGGCCNDEGLECVPTEESNITMQIMRIKPHQGQHIGEMSFLQHNKCECRPKKDRARQENPCGPCSERRKHLFVQDPQTCKCSCKNTDSRCKARQLELNERTCRCDKPRR | 0.87 | 0.015 | – | –
8 | E42N, E44S VEGF (ligand, N-linked carbohydrate at position 42 (apparently glycosylated), Neo-glycosylation control mutant from 293 cells, conditioned medium) APMAEGGGQNHHEVVKFMDVYQRSYCHPIETLVDIFQEYPDNISYIFKPSCVPLMRCGGCCNDEGLECVPTEESNITMQIMRIKPHQGQHIGEMSFLQHNKCECRPKKDRARQENPCGPCSERRKHLFVQDPQTCKCSCKNTDSRCKARQLELNERTCRCDKPRR | 0.77 | 0.013 | – | –
9 | E64S VEGF (ligand, preparation not described further) APMAEGGGQNHHEVVKFMDVYQRSYCHPIETLVDIFQEYPDEIEYIFKPSCVPLMRCGGCCNDSGLECVPTEESNITMQIMRIKPHQGQHIGEMSFLQHNKCECRPKKDRARQENPCGPCSERRKHLFVQDPQTCKCSCKNTDSRCKARQLELNERTCRCDKPRR | – | – | 1.9 | –
10 | E67A VEGF (ligand, VEGF165 mutant from 293 cells, conditioned medium) APMAEGGGQNHHEVVKFMDVYQRSYCHPIETLVDIFQEYPDEIEYIFKPSCVPLMRCGGCCNDEGLACVPTEESNITMQIMRIKPHQGQHIGEMSFLQHNKCECRPKKDRARQENPCGPCSERRKHLFVQDPQTCKCSCKNTDSRCKARQLELNERTCRCDKPRR | – | 0.008 | 0.47 | –
11 | E72A, E73A VEGF (ligand, VEGF165 mutant from 293 cells, conditioned medium) APMAEGGGQNHHEVVKFMDVYQRSYCHPIETLVDIFQEYPDEIEYIFKPSCVPLMRCGGCCNDEGLECVPTAASNITMQIMRIKPHQGQHIGEMSFLQHNKCECRPKKDRARQENPCGPCSERRKHLFVQDPQTCKCSCKNTDSRCKARQLELNERTCRCDKPRR | 0.91 | 0.03 | – | –
12 | E103A VEGF (ligand, VEGF165 mutant from 293 cells, conditioned medium) APMAEGGGQNHHEVVKFMDVYQRSYCHPIETLVDIFQEYPDEIEYIFKPSCVPLMRCGGCCNDEGLECVPTEESNITMQIMRIKPHQGQHIGEMSFLQHNKCACRPKKDRARQENPCGPCSERRKHLFVQDPQTCKCSCKNTDSRCKARQLELNERTCRCDKPRR | 0.74 | 0.017 | – | –
13 | H11A, H12A, E13A VEGF (ligand, VEGF165 mutant from 293 cells, conditioned medium) APMAEGGGQNAAAVVKFMDVYQRSYCHPIETLVDIFQEYPDEIEYIFKPSCVPLMRCGGCCNDEGLECVPTEESNITMQIMRIKPHQGQHIGEMSFLQHNKCECRPKKDRARQENPCGPCSERRKHLFVQDPQTCKCSCKNTDSRCKARQLELNERTCRCDKPRR | 0.62 | 0.02 | – | –
14 | H90A, E93A VEGF (ligand, VEGF165 mutant from 293 cells, conditioned medium; also called H9OA, E93A) APMAEGGGQNHHEVVKFMDVYQRSYCHPIETLVDIFQEYPDEIEYIFKPSCVPLMRCGGCCNDEGLECVPTEESNITMQIMRIKPHQGQAIGAMSFLQHNKCECRPKKDRARQENPCGPCSERRKHLFVQDPQTCKCSCKNTDSRCKARQLELNERTCRCDKPRR | 0.077 | 0.026 | – | –
15 | H99A, K101A VEGF (ligand, VEGF165 mutant from 293 cells, conditioned medium) APMAEGGGQNHHEVVKFMDVYQRSYCHPIETLVDIFQEYPDEIEYIFKPSCVPLMRCGGCCNDEGLECVPTEESNITMQIMRIKPHQGQHIGEMSFLQANACECRPKKDRARQENPCGPCSERRKHLFVQDPQTCKCSCKNTDSRCKARQLELNERTCRCDKPRR | 1.33 | 0.03 | – | –
16 | K84A VEGF (ligand, VEGF165 mutant from 293 cells, conditioned medium) APMAEGGGQNHHEVVKFMDVYQRSYCHPIETLVDIFQEYPDEIEYIFKPSCVPLMRCGGCCNDEGLECVPTEESNITMQIMRIAPHQGQHIGEMSFLQHNKCECRPKKDRARQENPCGPCSERRKHLFVQDPQTCKCSCKNTDSRCKARQLELNERTCRCDKPRR | – | 0.024 | 1.91 | –
17 | K107A, K108A VEGF (ligand, VEGF165 mutant from 293 cells, conditioned medium) APMAEGGGQNHHEVVKFMDVYQRSYCHPIETLVDIFQEYPDEIEYIFKPSCVPLMRCGGCCNDEGLECVPTEESNITMQIMRIKPHQGQHIGEMSFLQHNKCECRPAADRARQENPCGPCSERRKHLFVQDPQTCKCSCKNTDSRCKARQLELNERTCRCDKPRR | 2.94 | 0.066 | – | –
18 | KKDR(107-110)AAAA VEGF (ligand, VEGF165 mutant from 293 cells, conditioned medium; also called K107A, K108A, D109A, R110A) APMAEGGGQNHHEVVKFMDVYQRSYCHPIETLVDIFQEYPDEIEYIFKPSCVPLMRCGGCCNDEGLECVPTEESNITMQIMRIKPHQGQHIGEMSFLQHNKCECRPAAAAARQENPCGPCSERRKHLFVQDPQTCKCSCKNTDSRCKARQLELNERTCRCDKPRR | 2.42 | 0.054 | – | –
19 | N75A VEGF (ligand, Unglycosylated form of VEGF from 293 cells, conditioned medium) APMAEGGGQNHHEVVKFMDVYQRSYCHPIETLVDIFQEYPDEIEYIFKPSCVPLMRCGGCCNDEGLECVPTEESAITMQIMRIKPHQGQHIGEMSFLQHNKCECRPKKDRARQENPCGPCSERRKHLFVQDPQTCKCSCKNTDSRCKARQLELNERTCRCDKPRR | 1.26 | 0.022 | – | –
20 | R82A VEGF (ligand, VEGF165 mutant from 293 cells, conditioned medium) APMAEGGGQNHHEVVKFMDVYQRSYCHPIETLVDIFQEYPDEIEYIFKPSCVPLMRCGGCCNDEGLECVPTEESNITMQIMAIKPHQGQHIGEMSFLQHNKCECRPKKDRARQENPCGPCSERRKHLFVQDPQTCKCSCKNTDSRCKARQLELNERTCRCDKPRR | – | 0.02 | 1.23 | –
21 | R82A, K84A, H86A VEGF (ligand, VEGF165 mutant from 293 cells, conditioned medium; also called R82A, K84A, H86 VEGF) APMAEGGGQNHHEVVKFMDVYQRSYCHPIETLVDIFQEYPDEIEYIFKPSCVPLMRCGGCCNDEGLECVPTEESNITMQIMAIAPAQGQHIGEMSFLQHNKCECRPKKDRARQENPCGPCSERRKHLFVQDPQTCKCSCKNTDSRCKARQLELNERTCRCDKPRR | – | 0.048 | 1.7 | –
22 | R105A VEGF (ligand, VEGF165 mutant from 293 cells, conditioned medium) APMAEGGGQNHHEVVKFMDVYQRSYCHPIETLVDIFQEYPDEIEYIFKPSCVPLMRCGGCCNDEGLECVPTEESNITMQIMRIKPHQGQHIGEMSFLQHNKCECAPKKDRARQENPCGPCSERRKHLFVQDPQTCKCSCKNTDSRCKARQLELNERTCRCDKPRR | 1.57 | 0.038 | – | –
23 | purified CHO-derived VEGF165 (ligand, Homodimer; also called VEGF (CHO cell); wildtype VEGF165 derived from CHO cells) APMAEGGGQNHHEVVKFMDVYQRSYCHPIETLVDIFQEYPDEIEYIFKPSCVPLMRCGGCCNDEGLECVPTEESNITMQIMRIKPHQGQHIGEMSFLQHNKCECRPKKDRARQENPCGPCSERRKHLFVQDPQTCKCSCKNTDSRCKARQLELNERTCRCDKPRR | 0.95 | 0.019 | 0.95 | –
